Reference: the supplement of paper PMC11811203

B1: THAP1; numbered along this chain (parent)
chain: MVQSCSAYGCKNRYDKDKPVSFHKFPLTRPSLCKEWEAAVRRKNFKPTKYSSICSEHFTPDCFKRECNNKLLKENAVPTIFLCTEPHDKKEDLLEPQEQLPPPPLPPPVSQVDAAIGLLMPPLQTPVNLSVFCDHNYTVEDTMHQRKRIHQLEQQVEKLRKKLKTAQQRCRRQERQLEKLKEVVHFQKEKDDVSERGYVILPNDYFEIVEVPA

Variants of: B1
Assay: THAP1 transcriptional activity (GFP+/GFP- enrichment relative to wild-type constructs) (ratio to WT); higher = more THAP1 activity (PSMB5 reporter activation)
Conditions: with PSMB5 promoter-GFP reporter
Method in brief: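 Variants were counted by Illumina sequencing of genomic DNA amplicons from BFP+ cells sorted into GFP-bright and GFP-dim bins five days after lentiviral transduction, in duplicate at MOI ~0.3. The library changed each of residues 2–213 of human THAP1 to all 20 amino acids and was introduced into THAP1-knockout HEK-293T cells with mClover3 knocked in at endogenous PSMB5. Activity equals the replicate-mean bright/dim read fold change over the mean of wild-type synonymous constructs.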

| Variant | THAP1 transcriptional activity |
| --- | --- |
| N44K | 0.462 |
| F45M | 0.12 |
| F45S | 0.0855 |
| F45T | 0.0941 |
| F45L | 0.142 |
| N68V | 0.125 |
| L201I | 0.905 |
| F22V | 0.115 |
| L32M | 0.357 |
| L32G | 0.156 |
| L32V | 0.794 |
| T79H | 0.293 |
| P108V | 2.03 |
| P108I | 1.18 |
| P30E | 0.399 |
| P30C | 0.123 |
| H87R | 1.11 |
| H87W | 1.17 |
| H144S | 0.747 |
| Q168V | 0.249 |
| Q168C | 0.512 |
| S52Q | 0.261 |
| S52E | 0.0459 |
| K188C | 0.792 |

| Variant | THAP1 transcriptional activity |
| --- | --- |
| T28P | 0.103 |
| T28A | 0.664 |
| T28E | 0.172 |
| T28N | 0.889 |
| C54M | 0.0985 |
| C54K | 0.097 |
| L152R | 0.306 |
| L152V | 0.213 |
| L152K | 0.189 |
| A115F | 0.278 |
| A115D | 1.12 |
| Q154R | 0.653 |
| I200A | 0.558 |
| I200P | 0.688 |
| T142I | 0.34 |
| T142A | 0.581 |
| T142Q | 0.756 |
| H185P | 0.76 |
| H185N | 1.01 |
| H185F | 0.469 |
| H185S | 1.02 |
| V193C | 1.04 |
| D92Y | 0.942 |
| T59A | 0.736 |

| Variant | THAP1 transcriptional activity |
| --- | --- |
| P101N | 3.11 |
| Q3Y | 0.149 |
| Q3A | 0.849 |
| Q3E | 0.155 |
| Q3C | 0.269 |
| E56L | 0.526 |
| K24C | 0.146 |
| K24N | 0.0904 |
| I208V | 1.2 |
| V131S | 0.28 |
| V131F | 0.399 |
| V131H | 0.401 |
| K11L | 0.191 |
| V139W | 0.454 |
| V139G | 0.378 |
| K89F | 1.17 |
| K89A | 0.888 |
| K90F | 0.963 |
| K90A | 1.95 |
| D15G | 0.411 |
| A166L | 0.89 |
| I149C | 0.454 |
| I53K | 0.0685 |
| I53Q | 0.0507 |

| Variant | THAP1 transcriptional activity |
| --- | --- |
| D88A | 0.554 |
| D88Q | 1.12 |
| L27W | 0.263 |
| L27V | 0.488 |
| S194V | 1.06 |
| V109L | 2.8 |
| V109A | 1.33 |
| K64P | 0.104 |
| K64H | 0.0785 |
| K64V | 0.215 |
| K64W | 0.0652 |
| A7W | 0.0983 |
| D141M | 0.395 |
| C62A | 0.523 |
| C62Q | 0.74 |
| C62T | 0.195 |
| E157N | 0.914 |
| E157M | 1.03 |
| Y8E | 0.484 |
| C33D | 0.11 |
| C33M | 0.188 |
| C33P | 0.117 |
| P60M | 0.374 |
| R148Q | 0.425 |

| Variant | THAP1 transcriptional activity |
| --- | --- |
| L82N | 1.88 |
| L82W | 2.23 |
| P102M | 0.907 |
| R29C | 0.137 |
| R29Y | 0.118 |
| S130Q | 0.656 |
| S130D | 0.555 |
| Y14H | 0.106 |
| C67T | 1.19 |
| C67G | 0.127 |
| C67M | 0.594 |
| L119H | 0.929 |
| L119S | 0.92 |
| L119R | 0.731 |
| F206D | 1.24 |
| L163P | 0.149 |
| L163H | 0.178 |
| L163I | 0.488 |
| K46C | 0.377 |
| K46E | 0.212 |
| C133R | 1.24 |
| Q176V | 0.499 |
| S21P | 0.0702 |
| S21I | 0.128 |

| Variant | THAP1 transcriptional activity |
| --- | --- |
| K70H | 0.709 |
| K70Y | 0.12 |
| T125M | 0.329 |
| R160Q | 0.492 |
| R160C | 0.269 |
| L94D | 1.28 |
| L94T | 1.14 |
| T84K | 2.57 |
| F81E | 0.405 |
| F81P | 0.275 |
| E207N | 0.625 |
| P212R | 0.594 |
| F25L | 0.117 |
| F25T | 0.0714 |
| N128I | 0.201 |
| N128P | 0.417 |
| N128W | 0.283 |
| R169Q | 0.379 |
| R169A | 0.297 |
| R169P | 0.132 |
| I80H | 0.323 |
| I80N | 0.429 |
| C170A | 0.663 |
| C170H | 0.411 |

| Variant | THAP1 transcriptional activity |
| --- | --- |
| C170F | 0.35 |
| V2W | 0.109 |
| V2R | 0.122 |
| V2N | 0.157 |
| K16L | 0.129 |
| K16Y | 0.158 |
| K16A | 0.284 |
| A38H | 0.797 |
| E153R | 0.491 |
| E174S | 0.847 |
| E174L | 1.03 |
| E182T | 0.811 |
| C5I | 0.0585 |
| C5P | 0.0866 |
| V40I | 1.6 |
| V40K | 0.127 |
| W36N | 0.101 |
| W36M | 0.182 |
| P126E | 0.744 |
| P126W | 0.207 |
| M143T | 1.19 |
| M143K | 0.848 |
| M143F | 0.339 |
